These results are taken from patent US20230127087, “GLYPICAN-3-SPECIFIC MODIFIED APTAMER AND USE THEREOF” (APTAMER SCIENCES INC., published 2023).

Data set [1] has as its target T1, Glypican-3 (GPC3) (UniProt P51654 P51654:25-554). The data set can be described thus: filter; gemcitabine in loop; values only in figure.
The target of data set [2] is T1, Glypican-3 (GPC3). Kind of data set: Kd similar to 12-10; GPC3-Cy5; value only in figure. The following applies: label: 5' Cy5 (cell assays).
Data set [3] has as its target T1, Glypican-3 (GPC3). Kind of data set: filter; gemcitabine at 3' end; values only in figure.

T1 sequence (P51654 25-554, one chain of several): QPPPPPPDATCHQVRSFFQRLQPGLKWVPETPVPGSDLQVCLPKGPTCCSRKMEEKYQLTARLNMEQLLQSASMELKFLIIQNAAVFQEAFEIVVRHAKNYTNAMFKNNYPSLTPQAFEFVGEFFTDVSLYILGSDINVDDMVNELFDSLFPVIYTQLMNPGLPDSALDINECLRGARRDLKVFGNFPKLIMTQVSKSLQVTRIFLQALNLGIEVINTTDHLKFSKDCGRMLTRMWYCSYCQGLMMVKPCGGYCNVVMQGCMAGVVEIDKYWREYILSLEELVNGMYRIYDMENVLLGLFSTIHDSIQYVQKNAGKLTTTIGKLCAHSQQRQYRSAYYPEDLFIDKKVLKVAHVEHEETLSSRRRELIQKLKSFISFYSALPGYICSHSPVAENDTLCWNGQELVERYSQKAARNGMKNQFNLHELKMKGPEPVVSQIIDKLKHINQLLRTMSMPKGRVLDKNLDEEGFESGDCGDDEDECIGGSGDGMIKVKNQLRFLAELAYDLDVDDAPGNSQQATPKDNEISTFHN

B1: 12-10 G(2)L (ssDNA)
DNA: GGGAAGTGAATGCGTTGAATTATGTCCCTTCAGTCATCAC
modifications: n = BzdU; S = gemcitabine [BzdU (T) at 7,11,15,16,20,21,23,25,29,30,34,37; gemcitabine (C) at 26,27]
Consider B1, for which the binding result with Glypican-3 (GPC3) [1] is recorded as “binds”.

B2: 12-12 (ssDNA)
DNA: GTGAATGCGTTGAATTATGTCCCTTCAGTCATCAC
modifications: n = BzdU; 3' idT
On to B2, for which, in the data set with Glypican-3 (GPC3) [2], the binding result was “binds”.

B3: 12-10 G(2)3' (ssDNA)
DNA: GGGAAGTGAATGCGTTGAATTATGTCCCTTCAGTCATCACCA
modifications: n = BzdU; S = gemcitabine [BzdU (T) at 7,11,15,16,20,21,23,25,29,30,34,37; gemcitabine (C) at 40,41]
On to B3, for which the binding result with Glypican-3 (GPC3) [3] is reported as “binds”.
